Measured values published in the RNAGym collection of RNA variant scans (doi:10.7554/elife.80360).

B1: CPEB3 Ribozyme (parent)
chain: GGGGGCCACAGCAGAAGCGUUCACGUCGCGGCCCCUGUCAGAUUCUGGUGAAUCUGCGAAUUCUGCUGU

Variants of: B1
Test: self-cleavage, relative activity (ratio to wild type); higher = more cleavage; co-transcriptional

Variant	self-cleavage
G28A U61G	0.214
G28A G68A	0.294
U26C G50A	0.953
C27U U61G	0.277
C27U U61A	0.22
C27A C57G	0.298
U26G C29A	0.329
C27U G28A	0.126
U26G C34A	0.57
C27G C39G	0.263
C27G C39A	0.166
U26G G58C	0.799
U26G U61A	0.621
U26G U61C	0.418
G28U C32G	0.217
G28U C32U	0.226
U26C G56A	0.855
U26G U36A	0.186
G28U U61A	0.204
G28C G68C	0.147
C27A G41U	0.16
C27G G41C	0.176
U26G G47U	0.916
U26G G47A	0.893

Variant	self-cleavage
C27A G30U	0.232
G28C U67A	0.182
U26G C57U	0.255
C27A C54G	0.156
C27A C54U	0.602
G28C A42C	0.183
G28C A42G	0.128
G28C U69C	0.276
G28C U69G	0.301
G28U G37A	0.206
U26G G41U	0.756
C27U G37A	0.187
G28C A60C	0.217
G28U G68A	0.195
G28U G68U	0.208
C27G G56A	0.178
C27G G56U	0.156
C29A A59U	0.283
C29A A59C	0.274
G28A U62G	0.208
G28U G48U	0.198
G28U G48C	0.169
U26C A42G	0.924
G28U U36G	0.106

Variant	self-cleavage
G28U U36A	0.168
U26G C45U	0.982
G28C G50A	0.166
G28C G50C	0.168
G28C G50U	0.143
G28C C35G	0.17
C27A U46C	0.621
C27U C29G	0.114
C27U C29U	0.189
U26G G31U	0.242
U26G G31C	0.131
G28U C54U	0.178
G28U C35U	0.192
U26G U49A	0.918
C27G C34A	0.207
C27A U67G	0.635
G28A G50C	0.226
G28U U53C	0.157
G28U U44C	0.181
G28U U44A	0.135
C27U U49A	0.442
C27U U49C	0.301
G28A G65A	0.152
G28A G65U	0.172

Variant	self-cleavage
G28U A42C	0.153
U26A U69A	0.938
G28C U44G	0.191
C27A A59G	0.353
U26G G30A	0.509
U26G C27A	0.458
G28C G65U	0.16
G28A U38A	0.176
G28A A52C	0.182
G28A A52U	0.276
U26A U61A	0.515
U26C U62G	0.694
G28A G31U	0.197
G28A G31A	0.153
U26C U69G	1.06
C27G G65U	0.164
C27G G65C	0.234
C27G G58A	0.16
U26C C35A	0.254
C27U U38G	0.17
C27G U55C	0.137
G28A C45U	0.202
C27A C35G	0.256
U26C C39A	0.79

Variant	self-cleavage
C29A A60G	0.334
C29A A60C	0.307
C27U A59G	0.246
C27U A59C	0.127
C27U A59U	0.212
U26C U36G	0.123
U26C G68C	1.03
G28C U49G	0.182
G28C U49A	0.126
G28C A52C	0.198
G28C A52G	0.174
G28C C54A	0.151
C27U G56U	0.197
G28U A52G	0.18
C27G G37U	0.165
C27G G37A	0.135
C27A A52U	0.547
C27A A52G	0.708
C27G C57U	0.189
U26A U55A	0.745
C27U U67G	0.4
G28U U64C	0.219
G28A C35G	0.188
U26A U67A	0.913

Variant	self-cleavage
G28U U55G	0.168
C27A U53G	0.338
C27G C29U	0.121
C27G C29A	0.186
C27U U64A	0.161
G28C U61G	0.229
G28C U61A	0.256
U26A U62C	0.669
U26A U62G	0.652
G28A C39G	0.157
G28A C54A	0.175
G28U U62C	0.127
U26G C35U	0.726
G28C C45A	0.135
G28C C45U	0.194
C27G G31U	0.2
U26G C66U	0.888
U26G C66A	0.533
G28U C34G	0.219
G28U C34U	0.204
G28A G30A	0.156
G28A G30U	0.155
U26G C63G	0.427
G28U U43A	0.135

Variant	self-cleavage
G28U U43G	0.0809
U26C C34A	0.731
U26C C34U	0.935
G28C U46A	0.173
G28C U46C	0.131
G28C U46G	0.118
C29A A51C	0.534
G28C G30U	0.2
G28U C45G	0.162
C27G C63A	0.197
C27U C63G	0.263
C27U C63A	0.165
C27G U38G	0.255
U26C C27G	0.195
U26C C27U	0.182
U26C C27A	0.45
C27A U64C	0.343
C27A G31U	0.165
C27A G31A	0.171
C27U A60U	0.205
U26C C33U	0.997
G28C	0.173
G28U	0.178
G28A	0.213

Variant	self-cleavage
C27G U36C	0.168
C27G U36G	0.14
U26C U49A	0.984
G28C C34A	0.127
C27A U49A	0.763
C27G U61C	0.169
C27G U61G	0.172
G28A C63U	0.195
G28U U69C	0.235
G28U U69A	0.183
U26G A42G	0.78
C27U G31C	0.143
U26C C57U	0.408
U26C G30C	0.486
G28U C29G	0.129
C27G C45U	0.229
C27G C45A	0.17
C27U A40C	0.198
G28U G31A	0.24
C27U U53G	0.18
C27U U53A	0.25
C27G G47U	0.17
C27G G47A	0.265
C27A C45U	0.596

Variant	self-cleavage
C27U U69A	0.502
G28C C33G	0.166
G28C G56C	0.192
G28C G56A	0.181
U26C G37C	0.178
C27U G68C	0.385
C27U C39U	0.254
C27U G47A	0.459
C27U C45U	0.35
C27U C45A	0.216
C27U U43C	0.285
C27G G28A	0.147
U26A U64C	0.72
G28C U64C	0.194
U26G U64G	0.784
U26C U55G	0.74
C27A A51G	0.67
C27A A51C	0.494
G28C G58A	0.156
G28C G58U	0.187
C27U C57U	0.204
G28U C39U	0.171
C27G U43A	0.133
C27G U43G	0.154

Variant	self-cleavage
C27U G41A	0.147
C27A C29U	0.21
C27A C29A	0.184
C27A U43C	0.404
G28A G48A	0.19
G28A G48C	0.213
G28A G48U	0.19
G28C U55A	0.241
C27G U64C	0.254
C27G A42U	0.136
G28U C57A	0.188
G28U C57G	0.161
U26C G48U	1.01
U26C U53G	0.873
U26C U53A	0.958
U26C C45A	0.936
U26C C45G	0.983
C27G A60C	0.238
C27U G50C	0.272
C27G G68A	0.228
U26C C66U	0.939
C27A C66U	0.516
U26G A59U	0.455
C27A C63U	0.463

Variant	self-cleavage
C27A C63G	0.219
C27G C33A	0.29
C27G C33U	0.188
U26C G28C	0.1
U26C C32U	0.974
U26C C32A	0.753
C27U U36C	0.201
C27A U36A	0.207
G28A G41A	0.178
G28A G41U	0.148
C27A G58C	0.605
C27G U69G	0.29
G28U A60U	0.138
G28C G48C	0.135
C27A U38G	0.141
G28A G47A	0.22
G28A U36A	0.154
G28U G58U	0.182
C27G U44A	0.212
C27G U44C	0.145
G28A U53A	0.198
G28A U64G	0.205
G28A U64C	0.151
G28U G65A	0.146

Variant	self-cleavage
G28U G65U	0.2
U26G C32U	0.922
G28U C33U	0.155
U26C U43A	0.865
U26C U43C	0.892
G28U G50U	0.165
U26G A60C	0.361
U26G A60G	0.631
U26G G48A	0.937
U26G G48C	0.959
U26C A60G	0.85
C27G C54A	0.187
G28U A40U	0.213
C27G A51C	0.187
C27A G48C	0.652
C27A G48U	0.706
C27A G48A	0.745
G28U A59C	0.251
G28A C66A	0.189
G28A C66U	0.165
U26G G37C	0.162
G28A C34G	0.139
G28A C34U	0.244
C27U G48U	0.504

Variant	self-cleavage
C27U G48A	0.431
U26G U55C	0.787
U26G U55A	0.737
G28A A59G	0.17
G28A A59C	0.185
G28C C63G	0.198
G28C C63A	0.186
C27U C35G	0.14
C27U A42U	0.167
U26C G65U	0.604
C27G C66G	0.119
U26G G28A	0.183
U26G G28U	0.178
C27A G68U	0.811
C27A G68C	0.765
C27U U62C	0.189
C27U U62G	0.276
G28A A40C	0.15
G28U A51U	0.182
C27U C34G	0.24
C27U U55G	0.188
G28C U38G	0.133
G28C U38A	0.222
G28C C39U	0.207

Variant	self-cleavage
G28C C39A	0.156
G28A U55A	0.169
G28A U55G	0.167
C27A C32U	0.543
C27A A60C	0.23
C27A G47A	0.734
U26G G65U	0.53
C27A G56A	0.276
G28A A51G	0.229
G28U G56C	0.163
G28U G56U	0.137
G28U G56A	0.14
G28C U62G	0.209
G28A U49A	0.181
C27G A40U	0.17
C27G A40G	0.243
C27G G48U	0.163
C27G G48C	0.241
C27A G37A	0.203
C27A U61A	0.28
U26G U62A	0.818
U26G U62G	0.617
